# Test results as given in US20210380703A1 (RIGEL PHARMACEUTICALS, published 2021).
# Where a chain is given by its changes, count along the chain named.
# B1: 368_E06 (antibody, V domains shown)
# VH: EVQLLESGGGLVQPGGSLRLSCAASGFTFSDYGMHWVRQAPGKGLEWVSGINYNGGYTGYADSVKGRFTISRDNSKNTLYLQMNSLRAEDTAVYYCARSANWHDTALDYWGQGTLVTVSS
# VL: DIQMTQSPSSLSASVGDRVTITCRASQSILSYLNWYQQKPGKAPKLVIYGATSRASGVPSRFSGSGSGTDFTLTISSLQPEDFATYYCQQSYDSPLTFGGGTKVEIK
# B2: 368_E07 (antibody, V domains shown)
# VH: B1 VH with D31S, H35N, S49A, G59S, R98K
# VL: B1 VL with V47L, G50A, A51V, D93E, S94N
# B3: 368_F03 (antibody, V domains shown)
# VH: B1 VH with S30D, D31S, G33S, H35N, S49A, G55S, R98K
# VL: B1 VL with L30I, G50A, A55H
# B4: 368_F11 (antibody, V domains shown)
# VH: B1 VH with H35N, G59S, A106H
# VL: B1 VL with L30V, L33V, G50A, D93N, S94N
# B5: 368_G01 (antibody, V domains shown)
# VH: B1 VH with S49A, G50S, G55S, G59S
# VL: B1 VL with S31T, G50A, D93N, S94L
# B6: 368_G12 (antibody, V domains shown)
# VH: B1 VH with D31S, H35N, S49A, G50S, G55S
# VL: B1 VL with L30S, L33V, G50A, A51V, D93E, S94T
# B7: 368_H04 (antibody, V domains shown)
# VH: B1 VH with D31S, G33S, H35N, S49A, G55S, T58K, R98K, A106H
# VL: B1 VL with L30V, L33V, V47L, G50A
# B8: 369_A02 (antibody, V domains shown)
# VH: B1 VH with D31S, G33S, H35N, S49A, G55S, A106H
# VL: B1 VL with L33V, V47L, G50A, S94L
# B9: 369_B01 (antibody, V domains shown)
# VH: B1 VH with D31S, G33S, H35N, G59S
# VL: B1 VL with V47L, G50A, A51V, D93E, S94N
# B10: 369_C02 (antibody, V domains shown)
# VH: B1 VH with S30D, D31S, G33S, H35N, G50N, T58K, G59S
# VL: B1 VL with S31T, G50A, D93E, S94L
# B11: 369_C03 (antibody, V domains shown)
# VH: B1 VH with D31S, H35N, G50N, T58K, G59S
# VL: B1 VL with S31T, G50A
# B12: 369_C04 (antibody, V domains shown)
# VH: B1 VH with D31S, G33S, H35N, G50N
# VL: B1 VL with S31T, L33V, V47L, G50T, A51T, R54L, A55H, D93N, S94N
# B13: 369_D01 (antibody, V domains shown)
# VH: B1 VH with H35N, S49A, G50S
# VL: B1 VL with S31T, V47L, G50A, D93S, S94N
# B14: 369_D02 (antibody, V domains shown)
# VH: B1 VH with G33S, H35N, G50N, G55S
# VL: B1 VL with G50A, A51V, S94T
# B15: 369_D04 (antibody, V domains shown)
# VH: B1 VH with S30D, D31S, H35N, G59S
# VL: B1 VL with L33V, G50A, D93N, S94L
# B16: 369_D12 (antibody, V domains shown)
# VH: B1 VH with S30D, D31S, G33S, H35N, S49A, G55S, G59S
# VL: B1 VL with V47L, G50A, R54L, S94T
# B17: 369_E02 (antibody, V domains shown)
# VH: B1 VH with S30D, D31S, H35N, G50N
# VL: B1 VL with L30V, L33V, V47L, G50A, A51T, A55H, S94N
# B18: 369_E11 (antibody, V domains shown)
# VH: B1 VH with D31S, H35N, G50N, G59S
# VL: B1 VL with L30I, V47L, G50A, R54L, S94T
# B19: 369_E12 (antibody, V domains shown)
# VH: B1 VH with D31S, S49A, G50S, G55S, G59S
# VL: B1 VL with L30I, V47L, G50A, D93E
# B20: 369_F01 (antibody, V domains shown)
# VH: B1 VH with D31S, H35N, T58K, G59S
# VL: B1 VL with S31T, L33V, V47L, G50A, D93E, S94L
# B21: 369_F02 (antibody, V domains shown)
# VH: B1 VH with D31S, H35N, S49A, G50S, G55S, T58K, G59S
# VL: B1 VL with L30V, G50A, S94T
# B22: 369_F03 (antibody, V domains shown)
# VH: B1 VH with H35N, G55S, G59S
# VL: B1 VL with L30V, L33V, V47L, G50A, R54L
# B23: 369_F06 (antibody, V domains shown)
# VH: B1 VH with S30D, G33S, H35N, S49A, T58K
# VL: B1 VL with L30V, L33V, G50A
# B24: 369_F10 (antibody, V domains shown)
# VH: B1 VH with S30D, D31S, H35N, G50N, G55S, T58K, G59S
# VL: B1 VL with L30V, S31T, V47L, G50A, A51V, S94L
# B25: 369_F11 (antibody, V domains shown)
# VH: B1 VH with S30D, D31S, H35N, G50N, G55S, T58K, G59S
# VL: B1 VL with L30I, V47L, G50A, S94L
# B26: 369_G01 (antibody, V domains shown)
# VH: B1 VH with D31S, G33S, H35N, G50N, G55S, T58K, G59S
# VL: B1 VL with L33V, V47L, G50A, D93S
# Biological target: Mouse ACVR2A (mouse, UniProt P27038 20-135, limits assumed)
# Assay: ELISA
# How it was run: (§1)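 Binding signal was read by ELISA after ACVR2A-specific monoclonal antibodies were tested against human ACVR2A and mouse ACVR2A, with human Fc as the negative control.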
# Also: test concentration or dose not given here.
# Sequence of Mouse ACVR2A (P27038 20-135 limits assumed): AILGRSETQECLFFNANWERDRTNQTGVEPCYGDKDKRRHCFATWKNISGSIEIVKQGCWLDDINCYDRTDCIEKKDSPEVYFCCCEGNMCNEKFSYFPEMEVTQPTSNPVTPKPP
row,Binder,optical density
1,B1,2.34 OD
2,B2,1.17 OD
3,B3,2.6 OD
4,B4,2.73 OD
5,B5,2.82 OD
6,B6,2.54 OD
7,B7,1.36 OD
8,B8,3.46 OD
9,B9,3.46 OD
10,B10,3.52 OD
11,B11,3.65 OD
12,B12,1.65 OD
13,B13,3.32 OD
14,B14,3.44 OD
15,B15,2.97 OD
16,B16,3.1 OD
17,B17,2.34 OD
18,B18,3.2 OD
19,B19,2.69 OD
20,B20,3.42 OD
21,B21,3.35 OD
22,B22,2.75 OD
23,B23,3.07 OD
24,B24,3.23 OD
25,B25,3.37 OD
26,B26,3.67 OD

# Biological target: T1, Human ACVR2A (human, UniProt P27037 20-135, limits assumed)
# T1 construct: also called activin receptor, type II A
# Assay: ELISA
# How it was run: as §1
# T1 sequence (P27037 20-135 limits assumed): as the sequence (P27038 20-135 limits assumed) above, with R20K, I73V counted along it
row,Binder,optical density
1,B1,2.33 OD
2,B2,1.07 OD
3,B3,2.35 OD
4,B4,2.58 OD
5,B5,2.65 OD
6,B6,2.46 OD
7,B7,1.06 OD
8,B8,3.15 OD
9,B9,3.36 OD
10,B10,3.6 OD
11,B11,3.37 OD
12,B12,1.64 OD
13,B13,3.13 OD
14,B14,3.29 OD
15,B15,3.05 OD
16,B16,3.04 OD
17,B17,2.14 OD
18,B18,2.89 OD
19,B19,2.46 OD
20,B20,3.28 OD
21,B21,3.07 OD
22,B22,2.58 OD
23,B23,3.11 OD
24,B24,3.05 OD
25,B25,3.2 OD
26,B26,3.57 OD

# Biological target: T2, Goat anti-Human Kappa
# T2 construct: Positive control of the ELISA; also called biotinylated goat anti-human kappa light chain
# Assay: ELISA, positive control
# How it was run: as §1
row,Binder,optical density
1,B1,3.5 OD
2,B2,3.45 OD
3,B3,3.6 OD
4,B4,3.53 OD
5,B5,3.62 OD
6,B6,3.52 OD
7,B7,3.51 OD
8,B8,3.49 OD
9,B9,3.59 OD
10,B10,3.54 OD
11,B11,3.52 OD
12,B12,2.46 OD
13,B13,3.63 OD
14,B14,3.53 OD
15,B15,3.59 OD
16,B16,3.53 OD
17,B17,3.43 OD
18,B18,3.69 OD
19,B19,3.67 OD
20,B20,3.47 OD
21,B21,3.56 OD
22,B22,3.44 OD
23,B23,3.51 OD
24,B24,3.67 OD
25,B25,3.66 OD
26,B26,3.44 OD
